Assay results from IntAct's records for PubMed 38825040.

Biological target: lg3bp_human LGALS3BP (UniProt Q08380)
Sequence (Q08380 whole entry): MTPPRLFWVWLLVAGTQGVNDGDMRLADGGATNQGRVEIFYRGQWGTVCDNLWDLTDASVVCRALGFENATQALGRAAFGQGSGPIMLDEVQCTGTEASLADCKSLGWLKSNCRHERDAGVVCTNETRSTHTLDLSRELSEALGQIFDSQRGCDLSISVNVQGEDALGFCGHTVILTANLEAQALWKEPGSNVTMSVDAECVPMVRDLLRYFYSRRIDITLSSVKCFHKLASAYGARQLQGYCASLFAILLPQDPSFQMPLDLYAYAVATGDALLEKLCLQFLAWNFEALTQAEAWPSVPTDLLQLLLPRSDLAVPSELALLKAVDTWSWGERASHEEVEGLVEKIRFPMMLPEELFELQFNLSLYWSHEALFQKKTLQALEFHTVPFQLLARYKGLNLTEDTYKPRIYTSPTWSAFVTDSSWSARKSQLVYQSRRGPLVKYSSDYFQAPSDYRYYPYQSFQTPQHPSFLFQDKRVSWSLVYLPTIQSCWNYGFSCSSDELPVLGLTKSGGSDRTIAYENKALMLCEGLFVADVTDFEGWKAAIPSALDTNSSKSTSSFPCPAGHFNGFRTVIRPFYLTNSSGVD

Chain of Extracellular sulfatase Sulf-2 (Homo sapiens), Q8IWU5 S583A (Q8IWU5 whole entry S583A): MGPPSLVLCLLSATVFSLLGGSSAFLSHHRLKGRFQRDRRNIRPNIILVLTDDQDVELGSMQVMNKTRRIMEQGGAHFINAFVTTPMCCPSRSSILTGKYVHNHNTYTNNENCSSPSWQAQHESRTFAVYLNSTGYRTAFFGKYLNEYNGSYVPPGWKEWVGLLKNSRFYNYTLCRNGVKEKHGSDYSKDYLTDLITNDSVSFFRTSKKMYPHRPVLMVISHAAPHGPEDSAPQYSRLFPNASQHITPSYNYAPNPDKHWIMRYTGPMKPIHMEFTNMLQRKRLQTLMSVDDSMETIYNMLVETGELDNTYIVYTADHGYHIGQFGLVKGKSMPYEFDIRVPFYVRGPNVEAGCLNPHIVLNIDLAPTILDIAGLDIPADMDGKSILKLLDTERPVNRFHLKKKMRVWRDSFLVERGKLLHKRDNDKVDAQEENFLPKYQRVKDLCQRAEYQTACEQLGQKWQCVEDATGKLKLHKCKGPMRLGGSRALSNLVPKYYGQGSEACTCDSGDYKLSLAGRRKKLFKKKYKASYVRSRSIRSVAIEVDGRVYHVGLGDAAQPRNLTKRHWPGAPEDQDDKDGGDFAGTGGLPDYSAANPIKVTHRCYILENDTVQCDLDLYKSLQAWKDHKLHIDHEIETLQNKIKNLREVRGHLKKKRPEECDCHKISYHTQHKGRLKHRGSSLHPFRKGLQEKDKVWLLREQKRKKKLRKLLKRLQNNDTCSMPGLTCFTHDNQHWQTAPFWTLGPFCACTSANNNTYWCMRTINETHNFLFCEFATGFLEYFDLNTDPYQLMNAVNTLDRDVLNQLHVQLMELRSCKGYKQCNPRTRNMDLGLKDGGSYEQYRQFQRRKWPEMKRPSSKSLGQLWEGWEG

- effect of a mutation on the interaction: increasing interaction strength
Substance: Extracellular sulfatase Sulf-2 (Homo sapiens), Q8IWU5 S583A
